For experiment [1], the target named is T1, human PD-L1 4NQ (N35Q/N192Q/N200Q/N219Q), fully unglycosylated variant, expressed on BT549 cells (human, UniProt Q9NZQ7 19-290).
T1 construct: In the Western blots the protein was in cell lysate; also called 4NQ PD-L1; unglycosylated PD-L1 4NQ mutant
T1 chain: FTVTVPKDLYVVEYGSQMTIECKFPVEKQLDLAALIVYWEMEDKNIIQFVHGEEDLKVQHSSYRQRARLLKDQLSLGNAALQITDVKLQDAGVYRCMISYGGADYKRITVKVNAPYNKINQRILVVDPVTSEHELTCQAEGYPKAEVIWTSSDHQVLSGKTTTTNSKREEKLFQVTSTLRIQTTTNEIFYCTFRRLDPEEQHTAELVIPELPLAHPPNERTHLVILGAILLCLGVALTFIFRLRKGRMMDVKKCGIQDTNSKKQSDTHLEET
Nature of the experiment: flow cytometry on BT549 cells overexpressing PD-L1 4NQ (mixed with WT cells), FITC secondary antibody.

Experiment [2] concerns the target T2, human PD-L1 wild type (glycosylated), expressed on cells (human, UniProt Q9NZQ7 19-290, N-glycosylated at N35, N192, N200 and N219).
T2 construct: Endogenous on NCI-H226, A431 and MDA-MB231 cells and transfected into 4T1 cells in the functional assays; In the Western blots the protein was in cell lysate; also called PD-L1 WT; WT PD-L1
The experiment can be described thus: flow cytometry on BT549 cells overexpressing PD-L1 WT (biotin labeled, mixed with 4NQ cells), FITC secondary antibody.

T2 sequence (Q9NZQ7 19-290): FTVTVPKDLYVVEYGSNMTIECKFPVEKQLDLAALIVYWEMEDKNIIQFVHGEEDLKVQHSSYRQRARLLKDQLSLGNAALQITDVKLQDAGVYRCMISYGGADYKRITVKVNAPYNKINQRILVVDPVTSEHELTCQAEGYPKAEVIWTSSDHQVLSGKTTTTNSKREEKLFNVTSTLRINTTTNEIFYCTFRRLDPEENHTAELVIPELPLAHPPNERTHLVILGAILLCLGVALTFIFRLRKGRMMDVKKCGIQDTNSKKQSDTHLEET

B1: STM073 MAb (antibody, V domains shown)
VH: EVQLVESGGALVKPGGSLKLSCAASGFTFSNSAMSWVRQTPEKRLEWVATISSAGSYTYYPDSVKGRFTISRDNAKNTLYLQMSSLRSEDTALYYCTRHYDYYFDYWGQGATLTVSS
VL: QIVLTQSPAIMSASPGEKVTLTCSASSSVSYMHWYQQKPGSSPRLVIYDTSNLASGVPVRFSGSGSGTSYSLTVSRMEAEDAATYYCQQWSDHPLTFGAGTKLELK
For the molecule B1, the figures for the MFI in experiment [1] and in experiment [2] were 12.2 and 63.9, respectively.

B2: STM004 MAb (antibody, V domains shown)
VH: QVQLQQSDAELVKPGASVKISCKASGYTFSDHAIHWVKQRPEQGLEWIGCISPGSGDITYNEKFKGKATLTADKSSSTAYMQLNSLTSEDSAVYFCKRWGLDYWGQGTTLTVSS
VL: DIVLTQSPASLAVSLGQRATISCRASESVEFYGTTLMQWYQQKPGQPPRLLIYAASNVESGVPARFSGSGSGTDFSLNIHPVEDDDIAMYFCQQSRKVPYTFGGGTKLEIK
Regarding B2, the MFI in experiment [1] stood at 8.7; in experiment [2], 42.5.

B3: STM108 MAb (antibody, V domains shown)
VH: EVMLVESGGALVKPGGSLKLSCAASGFSLSNYVMSWVRQTPEKRLEWVATISSGGRYIYYTDSVKGRFTISRDNARNTLYLQMSSLRSEDTAMYYCARDGSTLYYFDYWGQGTTLTVSS
VL: QTVLTQSPAIMSASPGEKVTMTCSASSSVDYMYWYQQKPGSSPRLLIYDTSNLASGVPVRFSGSGSGTSYSLTISRMEAEDAATYYCQQWSSSPPITFGTGTKVELK
For B3, the results for the MFI in experiment [1] and in experiment [2] were 27.6 and 117, respectively.

B4: STM115 MAb (antibody, V domains shown)
VH: EVMLVESGGALVEPGGSLKLSCVASGFTFSNYAMSWVRQTPERRLEWVASITNGGTYTYYPDSVKGRFTISRDNARNTLYLQMSSLRSEDTAMYFCARPLHYYGGSHFDYWGQGTTLTVSS
VL: EIVLTQSPALMAASPGEKVTITCSVSSSISSNTLHWYQQKSEISPKPWIYGTSNLASGVPVRFSGSGSGTSYSLTISSMEAEDAATYYCQQWSSYPLTFGGGTKLEIK
As to B4, the MFI in experiment [1] turned out to be 21.3; in experiment [2] it was 51.1.

For the origin of these results see patent publication US20190105403A1 (STCUBE, published 2019).
